From patent publication US20230192818A1

Experiments:
[1] = target: Antibody 178-09_His B.1.1.7 (27080) (SARS-CoV-2), P0DTC2; test: SPR (Carterra); conditions: remark: other sources report otherwise
[2] = target: Delta spike trimer (SARS-CoV-2), P0DTC2; conditions: remark: other sources report otherwise

B1: 3-31 (Fc fusion)
chain: EVQLVESGGGLVQPGGSLRLSCAASGSTFSINAMGWFRQAPGKEREFVAGITSSGGYTNYADSVKGRFTISADNSKNTAYLQMNSLKPEDTAVYYCAADGVPEYSDYASGPVWGQGTLVTVSS
B1 was tested, and the Kd [1] was 16.1 nM and the IC50 [2] was 3 nM.
